Assay results taken from patent US20130115635A1.

How the values were obtained:
Peptide N-YEPEA-C [1] = assay: ITC, 293.1 K
Peptide N-YEPEA-C [2] = assay: ITC, 298.1 K
Peptide N-YEPEA-C [3] = assay: ITC, 303.1 K
Peptide N-YEPEA-C [4] = assay: ITC, 310.1 K

B1: NbSyn2 (VHH)
VHH: QGQLVESGGGSVQAGGSLRLSCAASGIDSSSYCMGWFRQRPGKEREGVARINGLGGVKTAYADSVKDRFTISRDNAENTVYLQMNSLKPEDTAIYYCAAKFSPGYCGGSWSNFGYWGQGTQVTVSS
B1 was tested, and the Kd (Peptide N-YEPEA-C [1]) was 0.24 µM, the Stoichiometry (Peptide N-YEPEA-C [1]) was 0.98 and the Kd (Peptide N-YEPEA-C [2]) was 0.19 µM. It also gave a Stoichiometry (Peptide N-YEPEA-C [2]) of 0.99, a Kd (Peptide N-YEPEA-C [3]) of 0.46 µM and a Stoichiometry (Peptide N-YEPEA-C [3]) of 0.94. For the same binder, the Kd (Peptide N-YEPEA-C [4]) was 0.85 µM and the Stoichiometry (Peptide N-YEPEA-C [4]) was 0.92.
